# Biological target: Envelope (E) protein of tick-borne encephalitis virus strain Sofjin-Chumakov (Far-Eastern subtype), (Tick-borne encephalitis virus, strain Sofjin-Chumakov) (UniProt P07720)
# Test: cryo-EM structure
substance,measurement,value
"Envelope (E) protein of tick-borne encephalitis virus strain Sofjin-Chumakov (Far-Eastern subtype), (from UniProt P07720) (natural protein)",stoichiometry N,2

# Reference: PMC10930109
